# From patent publication US20240131074A1 (published 2024)
# Molecular target: human PSMA protein (ELISA) (human, UniProt Q04609 44-750)
# Assay: BLI (Octet)
# Chain of human PSMA protein (ELISA) (Q04609 44-750): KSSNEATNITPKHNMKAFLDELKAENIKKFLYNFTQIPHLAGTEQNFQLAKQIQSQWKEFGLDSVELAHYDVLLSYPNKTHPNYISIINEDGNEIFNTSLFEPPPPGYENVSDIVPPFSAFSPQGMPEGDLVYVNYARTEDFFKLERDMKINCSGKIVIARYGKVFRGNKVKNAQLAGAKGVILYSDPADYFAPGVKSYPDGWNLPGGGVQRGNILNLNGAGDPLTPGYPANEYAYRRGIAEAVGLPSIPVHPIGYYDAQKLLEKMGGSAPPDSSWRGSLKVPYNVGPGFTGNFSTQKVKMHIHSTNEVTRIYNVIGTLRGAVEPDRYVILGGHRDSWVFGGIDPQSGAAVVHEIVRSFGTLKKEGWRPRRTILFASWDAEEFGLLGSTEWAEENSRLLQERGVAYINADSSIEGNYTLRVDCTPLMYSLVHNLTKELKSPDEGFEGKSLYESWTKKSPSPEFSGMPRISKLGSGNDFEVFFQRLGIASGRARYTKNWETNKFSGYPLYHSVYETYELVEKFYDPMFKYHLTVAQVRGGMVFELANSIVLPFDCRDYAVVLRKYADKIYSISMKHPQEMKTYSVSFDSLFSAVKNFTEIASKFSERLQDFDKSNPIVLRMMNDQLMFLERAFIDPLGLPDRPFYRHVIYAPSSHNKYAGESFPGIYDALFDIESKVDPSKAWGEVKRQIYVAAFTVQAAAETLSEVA
row,Binder,Kd
1,"Anti-PSMA heavy chain-only antibody (UniAb) Clone ID 325795 (antibody, V domains shown) VH: EVQLLESGGGLVQPGGSLRLSCAASGFTFKFYAMSWVRQAPGKGPEWVSVISGSGGSTYYADSVKGRFTISRDNSKNTLHLQMNSLRAEDTAVYFCAKEIAEASRGFDYRGQGTLVTVSS",24.9 nM
2,"Anti-PSMA heavy chain-only antibody (UniAb) Clone ID 325972 (antibody, V domains shown) VH: EVQLLESGGGVVQPGRSLRLSCAASGFSFSGYGMHWVRQAPGKEREWVAVISYDGSNKYYADSVKGRFTISRDNSKNTLYLQMNSLRAEDTAVYYCAKDANWGQHPDHTSFDYRGQGTLVTVSS",17 nM
